Assay results published in patent US20210054047A1, “NOVEL ANTICANCER FUSION PROTEIN AND USE THEREOF” (KOREA INSTITUTE OF SCIENCE AND TECHNOLOGY, priority 2018, published 2021).
Blank lines part the entries; values can stand above or below the molecule they belong to.

Legend:
HT29 cells [1] = experiment: Cell viability, CCK-8 assay, HT29; type: cell-based, human; details: HT29, 250 nM (DOX 3.5 μg/ml), 24 hours
Protocol: (§1) HepG2, HT29, or MCF7 cells (1.5×10^4) were cultured in a 96-well plate for 1 day, after which DOX-TTPNs, DOX-FTNs, free DOX, empty TTPNs, or buffer was added to each well. After 24 hours, cell viability was measured using a CCK-8 assay (Dojindo Molecular Technologies) according to the manufacturer's instructions. For analysis of early apoptosis, HT29 cells in 6-18 well culture plate were treated with DOX-TTPNs, free DOX, empty TTPNs, or buffer for 24 hours. Thereafter, cells were incubated with Alexa Fluor 488-conjugated annexin V (Invitrogen) 20 for 15 minutes, then analyzed using an Accuri™ C6 flow cytometer (BD Biosciences) and FlowJo 21 v10 software.

HT29 cells [2] = experiment: Annexin V early apoptosis flow cytometry, HT29; type: cell-based, human; details: HT29, low concentrations, 24 hours
Protocol: as §1

[3] = tested on: cleaved form of caspase-3; experiment: Western blot of HT29 lysates: cleaved caspase-3; type: cell-based, human; details: HT29, 50 nM, 24 hours
Protocol: (§2) After incubating HT29 cells with 50 nM DOX-TTPNs, DOX-FTNs, free DOX, or buffer for 24 hours, cells were lysed with radioimmunoprecipitation assay (RIPA) buffer (Cell Signaling Technology) and the concentration of proteins was measured using a DC protein assay kit (Bio-Rad). Equal amounts of proteins (30 μg) were resolved by SDS-PAGE and transferred to nitrocellulose membranes. After blocking with 5% skim milk in Tris-buffered saline containing 0.1% Tween-20 (TBST), membranes were incubated first with anti-Cl-PARP, anti-Cl-caspase-6, anti-cFLIP, anti-Bcl-xL, anti-XIAP, anti-Cl-caspase-3, or anti-GAPDH primary antibody (Cell Signaling Technology), and then with anti-mouse or anti-rabbit secondary antibodies (Sigma-Aldrich), as appropriate. Immunoreactive proteins were visualized using enhanced chemiluminescence (ECL) chemical reagents (Bio-Rad) and ChemiDoc (Bio-Rad), and were analyzed using ImageJ software.

PARP = experiment: Western blot of HT29 lysates: PARP; type: cell-based, human; details: HT29, 24 hours
Protocol: as §2

XIAP = experiment: Western blot of HT29 lysates: XIAP; type: cell-based, human; details: HT29, 24 hours
Protocol: as §2

DR5 [4] = experiment: Western blot time course of DR5 levels in HT29; type: cell-based, human; details: HT29, 4, 12 and 24 hours
HT29 tumor [5] = experiment: Antitumor efficacy, HT29 xenograft; type: in vivo, mouse; details: i.v. five times every 2 days, DOX-TTPNs 30 mg/kg, DOX 0.4 mg/kg, DOX-FTNs 15 mg/kg, empty TTPNs 30 mg/kg
HT29 tumor [6] = experiment: TUNEL analysis of HT29 tumor tissue; type: in vivo, mouse; details: HT29 tumor tissue at the end of the study
[7] = mice (Chatterjee et al.); cited from earlier work
[8] = molecular target: TRAIL R1 (death receptor 4, DR4) on the surface of tumor cells (human, UniProt O00220 24-468); experiment: cell-based or functional assay
[9] = molecular target: TRAIL R2 (death receptor 5, DR5) on the surface of tumor cells (human, UniProt O14763 56-440); experiment: cell-based or functional assay
DR4 = molecular target: T1, DR4 (Homo sapiens, UniProt O00220); experiment: SPR binding to immobilized DR4-Fc; details: DR4-Fc immobilized, 25° C.
T1 construct: purchased R&D systems 347-DR-100
Protocol: (§3) Binding experiments of TTPN and mTRAIL to TRAIL receptors DR4 and DR5 were analyzed at 25° C. using a surface plasmon resonance apparatus (SR7500 DC, Reichert Inc., NY, USA). DR4 and DR5-fc chimeric proteins (R&D systems 347-DR-100, 631-T2-100) were immobilized on the surface of the Planar Protein A sensor chip (Reichert, 13206069) and the receptors were coated at a level of 300 to 500 resonance units. SPR kinetic titrations were performed by adding 250 μl of TTPN and mTRAIL with different concentrations in the range of 1.56 to 400 nM and 0.1 to 25.6 μM, respectively, increasing by four times. Each analyte was run at 50 μL/min using running and sample buffer (0.5 M Tris-HCl (pH 7.4), 150 mM NaCl, 0.005% Tween 20), and binding of the ligand to the receptor was performed and monitored in real time. For titration sensorgrams, a simple 1:1 Langmuir interaction model (A+B↔AB) was applied using the data analysis program Scrubber 2.0 (BioLogic Software, Australia, and KaleidaGraph Software, Australia) and CLAMP software.
(§4) The affinity KD was determined from the formula of KD=kd/ka. Results are based on representative sensorgrams obtained from saturation binding reactions averaged over at least three independent runs of SPR measurements (FIG. 31).

DR5 [10] = molecular target: T2, DR5 (Homo sapiens, UniProt O14763); experiment: SPR binding to immobilized DR5-Fc
T2 construct: purchased R&D systems 631-T2-100
Protocol: as §3, §4

[11] = In vitro stability (soluble protein in buffer over time); type: physicochemical
Protocol: The stability of TTPN, DOX-TTPN and mTRAIL was investigated by measuring changes of concentration in a suitable buffer solution. […] At predetermined times, aggregated proteins were collected at 13,000 rpm for 10 minutes, and the concentration of soluble DOX-TTPN and TTPN in the supernatant was measured using absorbance in UV280.

HepG2 cells [12] = experiment: Cell viability, CCK-8 assay, HepG2; type: cell-based, human; details: HepG2
Protocol: After culturing for 24 hours, cell viability was measured using a cell counting kit (CCK)-8 assay (Dojindo Molecular Technologies, Gaithersburg, Md.). The plate was then read with an absorbance microplate reader (Spectramax 340, Molecular Devices Corporation) at a wavelength of 450 nm and 50% effective by regression analysis using SigmaPlot software (Systat Software, Inc., San Jose, Calif.). The concentration value was calculated.

HepG2 cells [13] = experiment: Annexin V/PI flow cytometry of apoptosis, HepG2; type: cell-based, human; details: for surviving tumor cells (Annexin V/PI double negative): 24 hours
Protocol: FIG. 19 is a series of histograms representing flow cytometry analysis of TRAIL-mediated apoptosis of HepG2 cells as an analysis of in vitro TTPN-mediated apoptosis on TRAIL-sensitive-HepG2 cells. Cells were incubated for 24 hours in the presence of different concentrations of mTRAIL and TTPN and analyzed by Annexin V/PI double staining.
In addition, to investigate whether apoptosis induced by TTPN is induced by the pro-apoptosis pathway of tumor cells, fluorescence-activated cell sorting (FACS) using double staining of Annexin V/propidium iodide (PI) was performed. […] (FIG. 21).

HepG2 tumor [14] = experiment: Antitumor efficacy, HepG2 xenograft; type: in vivo, mouse; details: i.v. every 2 days, TTPN 23 mg/kg, mTRAIL 12 mg/kg
From the text: (§5) In the evaluation of the anti-tumor effect of the present invention, BALB/c nude male mice (6-7 weeks old) were used as an animal model. Particularly, HT29 cells (5×10^6) and HepG2 cells (5×10^6) were subcutaneously inoculated into the left dorsal flank of BALB/c nude mice, respectively. After a volume of tumors reached ˜80-100 mm^3, mice were randomly divided into the 14 following five treatment groups (6 mice/group); DOX-TTPNs, DOX-FTNs, free DOX, empty TTPNs, and buffer. Mice were intravenously injected five times, once every 2 days, and volume of tumors was determined as 1/2(Length×Width^2). Apoptotic cell death in tumor tissues was analyzed using TUNEL staining (In situ Cell Death Detection kit; Roche), and cells were stained with DAPI (4′,6-diamidino-2-phenylindole), as previously described (Kih et al., Biomaterials 180: 67-77, 2018). Apoptotic cells were visualized under a Nikon Eclipse Ti microscope (Nikon) and quantified as the number of TUNEL-positive cells per total number of cells using ImageJ software. After 21 days from injecting tumor cells, tumor tissues were excised from the experimental mice, and cryo-sections (3.5 μm) were fixed with 10% neutral buffered formalin and paraffin-embedded tissue blocks.
(§6) In addition, to investigate whether tumor growth inhibition by TTPN is induced by apoptosis-inducing activity on tumor cells, tumor tissues from the treated mice were analyzed. On the 15th day after the first injection, mice were euthanized, and apoptosis of tumor tissues was analyzed using terminal deoxynucleotidyl transferase dUTP nick end labeling (TUNEL) staining.

HepG2 tumor [15] = experiment: TUNEL analysis of HepG2 tumor tissue; type: in vivo, mouse; details: 15th day after first injection
From the text: as §5, with “After 21 days from injecting tumor cells, tumor tissues were excised from the experimental mice, and cryo-sections (3.5 μm) were fixed with 10% neutral buffered formalin and paraffin-embedded tissue blocks.” left out
as §6

[16] = within 21 days (Kih et al.); cited from earlier work
[17] = molecular target: T3, DR4-Fc chimeric protein (R&D systems 347-DR-100) (UniProt O00220 24-239); experiment: SPR, DR4-Fc captured on Protein A chip, 25° C., 1:1 Langmuir model
T3 construct: Bought (R&D systems 347-DR-100); Captured on a Protein A sensor chip; also called TRAIL R1; death receptor 4; Fc part of the bought chimera not given
Protocol: DR4 and DR5-fc chimeric proteins (R&D systems 347-DR-100, 631-T2-100) were immobilized on the surface of the Planar Protein A sensor chip (Reichert, 13206069) and the receptors were coated at a level of 300 to 500 resonance units. […] Each analyte was run at 50 μL/min using running and sample buffer (0.5 M Tris-HCl (pH 7.4), 150 mM NaCl, 0.005% Tween 20), and binding of the ligand to the receptor was performed and monitored in real time. For titration sensorgrams, a simple 1:1 Langmuir interaction model (A+B↔AB) was applied using the data analysis program Scrubber 2.0 (BioLogic Software, Australia, and KaleidaGraph Software, Australia) and CLAMP software.
The affinity KD was determined from the formula of KD=kd/ka.

Molecule: COc1cccc2c1C(=O)c1c(O)c3c(c(O)c1C2=O)C[C@@](O)(C(=O)CO)C[C@@H]3O[C@H]1C[C@H](N)[C@H](O)[C@H](C)O1 [free DOX, doxorubicin, reference compound]
cell death compared with controls (HT29 cells [1]): 36% | induction of early apoptosis (HT29 cells [2]): ineffective in inducing apoptosis | cleaved caspase-3 (and PARP) expression [3]: little change | increase in PARP relative to buffer-treated controls (defined as 1) (PARP): 811 fold | decrease in XIAP levels compared with buffer treatment (XIAP): 34 fold | DR5 expression levels over time (DR5 [4]): substantial increase in DR5 expression at 4 hours | decrease of tumor volumes (HT29 tumor [5]): no significant tumor-inhibition effect | TUNEL-positive tumor cells (HT29 tumor [6]): 0.07% | dose at which side effects can be exhibited [7]: greater than 1 mg/kg

ka (DR4): 8.68 (±7.12) · 10^2 M^−1 · S^−1 | kd (DR4): 5.27 (±2.14) · 10^−5 s^−1 | ka (DR5 [10]; 25° C.): 1.48 (±0.12) · 10^3 M^−1 · S^−1 | kd (DR5 [10]; 25° C.): 3.87 (±1.13) · 10^−5 s^−1 | Kd (DR5 [10]; KD=kd/ka): 25.4 nM | IC50 relative to TTPN (HepG2 cells [12]): 30 times
B1: monomeric TRAIL (mTRAIL) extracellular domain (ligand)
chain: MTSEETISTVQEKQQNISPLVRERGPQRVAAHITGTRGRSNTLSSPNSKNEKALGRKINSWESSRSGHSFLSNLHLRNGELVIHEKGFYYIYSQTYFRFQEEIKENTKNDKQMVQYIYKYTSYPDPILLMKSARNSCWSKDAEYGLYSIYQGGIFELKENDRIFVSVTNEHLIDMDHEASFFGAFLVG
notes: Expressed in E. coli from pET28a-mTRAIL and purified on Ni-NTA; a vector tag is not spelled out
IC50, cell viability of HepG2 cells (CCK-8, 24 hours) [8]: 405 nM | IC50, cell viability of HepG2 cells (CCK-8, 24 hours) [9]: 405 nM | stability in solution ([11]; 15 mg/mL in PBS buffer for 24 hours (FIG. 15)): precipitated and aggregated rapidly | amount in the soluble form, of the initial concentration ([11]; within 2 days, 10 mg/mL (FIG. 16)): 57% | surviving tumor cells (Annexin V/PI double negative) (HepG2 cells [13]; HepG2, 0.4 nM): 94.3% | surviving tumor cells (Annexin V/PI double negative) (HepG2 cells [13]; HepG2, 100 nM): 82.9% | concentration at which Annexin V-positive cells were detected (HepG2 cells [13]; HepG2, 24 hours (FIG. 20)): 25 nM | inhibition of tumor volume (HepG2 tumor [14]): 25.98% | TUNEL-positive tumor cells (HepG2 tumor [15]): 18.9% | fraction showing rapid aggregation [16]: ~50% | Kd [17]: 247 nM | koff [17]: 5.27e-05 s⁻¹ | kon [17]: 868 M⁻¹ s⁻¹
